Measured values published in PMC7949115, “Poly(ADP-ribose) polymerase 1 regulates mitochondrial DNA repair in an NAD-dependent manner”.

Assays:
[1] = target: T1, PARP1 (PARP-1);Pol gamma A (catalytic subunit);Pol gamma B deltaI4 (accessory subunit) (Homo sapiens?;Homo sapiens?;Homo sapiens?) (UniProt P09874+P54098+Q9UHN1); experiment: EMSA; conditions: apparent; PARP1 titrated into Pol gamma (0.5 uM)-DNA (0.75 uM); no NAD+; Buffer RX: 25 mM Hepes pH 7.5, 140 mM KCl, 5 mM MgCl2, 5% glycerol, 1 mM BME; ITC at 25 C; EMSA incubated on ice then room temperature, 4-20% native PAGE in …
[2] = target: T1, PARP1 (PARP-1);Pol gamma A (catalytic subunit);Pol gamma B deltaI4 (accessory subunit) (Homo sapiens?;Homo sapiens?;Homo sapiens?); experiment: ITC; conditions: Buffer RX: 25 mM Hepes pH 7.5, 140 mM KCl, 5 mM MgCl2, 5% glycerol, 1 mM BME; ITC at 25 C; EMSA incubated on ice then room temperature, 4-20% native PAGE in …
[3] = target: mitochondrial DNA polymerase (Pol γ) holoenzyme, heterotrimer of Pol γA and dimeric Pol γB ΔI4 (UniProt P54098); experiment: ITC; PARP-1 titrated into Pol γ (5 μM) to a final 10 μM, without DNA; 25 °C; Buffer RX (25 mM Hepes pH 7.5, 140 mM KCl, 5 mM MgCl2, 5% glycerol, 1 mM BME)
PARP1 (PARP-1) = PARP1 (PARP-1) (UniProt P09874 1-1014); experiment: ITC; 25 C, 5 mM Mg2+, no NAD+; dH -58.4 kcal/mol; Buffer RX: 25 mM Hepes pH 7.5, 140 mM KCl, 5 mM MgCl2, 5% glycerol, 1 mM BME; ITC at 25 C; EMSA incubated on ice then room temperature, 4-20% native PAGE in Tris-glycine at 0 C; conditions: protein: recombinant; tags: His (Ni-NTA purified); self-annealed dumbbell, two hairpins, 3-nt gap
PARP1 (PARP-1), sequence (P09874 whole entry): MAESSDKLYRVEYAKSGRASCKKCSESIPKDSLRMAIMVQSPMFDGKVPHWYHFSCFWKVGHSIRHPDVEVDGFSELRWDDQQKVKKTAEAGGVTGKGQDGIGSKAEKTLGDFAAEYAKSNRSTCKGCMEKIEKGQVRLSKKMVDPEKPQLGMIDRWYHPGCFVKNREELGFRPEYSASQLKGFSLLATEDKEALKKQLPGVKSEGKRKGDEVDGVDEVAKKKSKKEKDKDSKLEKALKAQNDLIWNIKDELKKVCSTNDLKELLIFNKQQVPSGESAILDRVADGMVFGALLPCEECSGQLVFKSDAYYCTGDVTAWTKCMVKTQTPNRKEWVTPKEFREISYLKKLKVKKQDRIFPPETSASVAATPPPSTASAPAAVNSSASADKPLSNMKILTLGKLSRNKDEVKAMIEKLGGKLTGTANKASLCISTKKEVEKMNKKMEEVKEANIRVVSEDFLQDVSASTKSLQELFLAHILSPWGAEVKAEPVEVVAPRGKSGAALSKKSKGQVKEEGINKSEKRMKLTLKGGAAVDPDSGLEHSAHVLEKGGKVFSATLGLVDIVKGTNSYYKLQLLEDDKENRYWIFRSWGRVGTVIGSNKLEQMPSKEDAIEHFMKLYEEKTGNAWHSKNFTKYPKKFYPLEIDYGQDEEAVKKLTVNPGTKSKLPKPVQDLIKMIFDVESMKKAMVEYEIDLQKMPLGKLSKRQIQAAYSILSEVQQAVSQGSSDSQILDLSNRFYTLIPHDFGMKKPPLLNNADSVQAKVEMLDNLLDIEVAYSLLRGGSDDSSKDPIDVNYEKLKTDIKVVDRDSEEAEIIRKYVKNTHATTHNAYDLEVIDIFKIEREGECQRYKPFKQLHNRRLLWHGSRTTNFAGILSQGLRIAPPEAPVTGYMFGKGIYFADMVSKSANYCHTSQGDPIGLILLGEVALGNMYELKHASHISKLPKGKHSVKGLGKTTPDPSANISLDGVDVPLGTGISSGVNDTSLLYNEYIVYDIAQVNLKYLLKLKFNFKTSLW

T1 sequence (P09874 whole entry, stated change not applied, chain 1 of 3): as the sequence (P09874 whole entry) above
T1 sequence (P54098 30-1239, stated change not applied, chain 2 of 3): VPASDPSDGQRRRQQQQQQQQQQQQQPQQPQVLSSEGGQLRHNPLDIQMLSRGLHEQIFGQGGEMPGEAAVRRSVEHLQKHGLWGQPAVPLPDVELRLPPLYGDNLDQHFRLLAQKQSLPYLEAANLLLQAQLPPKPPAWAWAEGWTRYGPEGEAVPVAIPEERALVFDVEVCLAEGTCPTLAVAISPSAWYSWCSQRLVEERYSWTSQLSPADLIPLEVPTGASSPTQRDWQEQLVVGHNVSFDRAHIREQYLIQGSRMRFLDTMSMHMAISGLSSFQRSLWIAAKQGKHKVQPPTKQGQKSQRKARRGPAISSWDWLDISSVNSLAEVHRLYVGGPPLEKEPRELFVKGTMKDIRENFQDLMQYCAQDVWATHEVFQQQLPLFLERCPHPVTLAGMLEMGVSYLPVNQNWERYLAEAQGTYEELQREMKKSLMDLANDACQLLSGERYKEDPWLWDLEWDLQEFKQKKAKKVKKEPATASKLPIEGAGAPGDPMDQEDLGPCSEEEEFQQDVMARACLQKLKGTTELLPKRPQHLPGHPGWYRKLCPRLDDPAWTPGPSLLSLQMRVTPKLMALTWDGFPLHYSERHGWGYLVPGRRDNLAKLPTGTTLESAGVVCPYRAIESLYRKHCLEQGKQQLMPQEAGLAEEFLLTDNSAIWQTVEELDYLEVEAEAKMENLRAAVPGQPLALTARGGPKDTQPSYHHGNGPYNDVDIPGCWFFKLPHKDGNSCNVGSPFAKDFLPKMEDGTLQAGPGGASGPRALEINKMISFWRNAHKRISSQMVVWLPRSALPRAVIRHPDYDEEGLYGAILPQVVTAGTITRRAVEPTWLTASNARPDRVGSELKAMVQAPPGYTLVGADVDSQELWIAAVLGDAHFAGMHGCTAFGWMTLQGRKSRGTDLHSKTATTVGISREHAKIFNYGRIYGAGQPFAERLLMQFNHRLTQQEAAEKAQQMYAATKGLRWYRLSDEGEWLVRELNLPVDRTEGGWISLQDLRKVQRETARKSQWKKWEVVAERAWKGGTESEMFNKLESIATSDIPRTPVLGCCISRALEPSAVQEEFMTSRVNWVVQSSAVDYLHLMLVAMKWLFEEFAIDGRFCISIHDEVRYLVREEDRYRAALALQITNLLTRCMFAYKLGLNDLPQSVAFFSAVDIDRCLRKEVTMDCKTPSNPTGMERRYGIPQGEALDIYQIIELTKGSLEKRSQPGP
T1 sequence (Q9UHN1 whole entry, stated change not applied, chain 3 of 3): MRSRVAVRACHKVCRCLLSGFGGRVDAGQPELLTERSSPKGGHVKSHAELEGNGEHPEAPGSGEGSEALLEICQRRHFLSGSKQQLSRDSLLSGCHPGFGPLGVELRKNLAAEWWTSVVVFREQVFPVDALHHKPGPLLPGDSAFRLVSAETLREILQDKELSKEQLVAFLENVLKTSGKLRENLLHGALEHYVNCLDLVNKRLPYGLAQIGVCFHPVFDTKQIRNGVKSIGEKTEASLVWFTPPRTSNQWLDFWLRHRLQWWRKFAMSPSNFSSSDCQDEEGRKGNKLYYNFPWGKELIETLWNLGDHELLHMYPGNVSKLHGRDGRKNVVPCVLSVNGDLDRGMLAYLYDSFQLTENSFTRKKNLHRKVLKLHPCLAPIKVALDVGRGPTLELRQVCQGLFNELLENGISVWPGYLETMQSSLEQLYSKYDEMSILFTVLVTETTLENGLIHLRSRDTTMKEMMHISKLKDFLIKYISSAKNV

## CTTTTCTGGTGAAAAGCTCGTCGGCAGCGCTTGAGCAGCGGCAGCTGGTGCTGCCGCTGCTCAAGCGCTGCCGAC [d3ntgap (75-nt dumbbell with 3-nt gap)]
[1]
  Kd: 600 nM
[2]
  Kd: 111 nM

## Poly(ADP-ribose) polymerase 1 (from UniProt P09874 1-1014) (enzyme)
[3]
  Kd: > 10000 nM

B1: d3ntgap (75-nt dumbbell with 3-nt gap) (structured_DNA)
DNA: CTTTTCTGGTGAAAAGCTCGTCGGCAGCGCTTGAGCAGCGGCAGCTGGTGCTGCCGCTGCTCAAGCGCTGCCGAC
PARP1 (PARP-1)
  Kd: 36.4 nM
